According to US20230220042A1 (SHANGHAI JIAO TONG UNIVERSITY SCHOOL OF MEDICINE, published 2023):

Molecular target: T1, Biotin-FcγRIIB (human, UniProt P31994 43-217, limits assumed, biotin-labelled)
T1 construct: Bought, biotin-labelled; used at 1 µg/ml for staining and sorting; also called human FcγRIIB; CD32b
T1 sequence (looked up): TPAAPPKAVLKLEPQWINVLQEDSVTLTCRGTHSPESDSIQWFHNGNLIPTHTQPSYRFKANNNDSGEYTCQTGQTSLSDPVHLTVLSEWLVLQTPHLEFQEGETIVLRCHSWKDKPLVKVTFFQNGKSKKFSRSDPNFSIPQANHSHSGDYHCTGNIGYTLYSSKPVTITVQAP
Assay: FACS sorting of displayed Fc library on biotin-FcγRIIB, NGS

B1: human IgG2 anti-mouse CD40 surface displayed antibody, Fc mutant A330R (antibody, name in EU numbering)
light chain (with the P2A rest): DTVLTQSPALAVSPGERVTISCRASDSVSTLMHWYQQKPGQQPKLLIYLASHLESGVPARFSGSGSGTDFTLTIDPVEADDTATYYCQQSWNDPWTFGGGTKLELKRTVAAPSVFIFPPSDEQLKSGTASVVCLLNNFYPREAKVQWKVDNALQSGNSQESVTEQDSKDSTYSLSSTLTLSKADYEKHKVYACEVTHQGLSSPVTKSFNRGECGSGATNFSLLKQAGDVEENPG
heavy chain: EVQLVESDGGLVQPGRSLKLPCAASGFTFSDYYMAWVRQAPTKGLEWVASISYDGSSTYYRDSVKGRFTISRDNAKSTLYLQMDSLRSEDTATYYCGRHSSYFDYWGQGVMVTVSSASTKGPSVFPLAPCSRSTSESTAALGCLVKDYFPEPVTVSWNSGALTSGVHTFPAVLQSSGLYSLSSVVTVPSSNFGTQTYTCNVDHKPSNTKVDKTVERKCCVECPPCPAPPVAGPSVFLFPPKPKDTLMISRTPEVTCVVVDVSHEDPEVQFNWYVDGVEVHNAKTKPREEQFNSTFRVVSVLTVVHQDWLNGKEYKCKVSNKGLPRPIEKTISKTKGQPREPQVYTLPPSREEMTKNQVSLTCLVKGFYPSDIAVEWESNGQPENNYKTTPPMLDSDGSFFLYSKLTVDKSRWQQGNVFSCSVMHEALHNHYTQKSLSLSPGKLEPPPSTVSNMATVAVLVVLGAAIVTGAVVAFVMKMRRRNTGGKGGDYALAPGSQTSDLSLPDCKVMVHDPHSLA
notes: as m1; positions are Eu numbers; copies: 2 + 2
Increased factor b Site 2 (point mutation/wild-type): 0

B2: human IgG2 anti-mouse CD40 surface displayed antibody, Fc mutant I332A (antibody, name in EU numbering)
light chain (with the P2A rest): DTVLTQSPALAVSPGERVTISCRASDSVSTLMHWYQQKPGQQPKLLIYLASHLESGVPARFSGSGSGTDFTLTIDPVEADDTATYYCQQSWNDPWTFGGGTKLELKRTVAAPSVFIFPPSDEQLKSGTASVVCLLNNFYPREAKVQWKVDNALQSGNSQESVTEQDSKDSTYSLSSTLTLSKADYEKHKVYACEVTHQGLSSPVTKSFNRGECGSGATNFSLLKQAGDVEENPG
heavy chain: EVQLVESDGGLVQPGRSLKLPCAASGFTFSDYYMAWVRQAPTKGLEWVASISYDGSSTYYRDSVKGRFTISRDNAKSTLYLQMDSLRSEDTATYYCGRHSSYFDYWGQGVMVTVSSASTKGPSVFPLAPCSRSTSESTAALGCLVKDYFPEPVTVSWNSGALTSGVHTFPAVLQSSGLYSLSSVVTVPSSNFGTQTYTCNVDHKPSNTKVDKTVERKCCVECPPCPAPPVAGPSVFLFPPKPKDTLMISRTPEVTCVVVDVSHEDPEVQFNWYVDGVEVHNAKTKPREEQFNSTFRVVSVLTVVHQDWLNGKEYKCKVSNKGLPAPAEKTISKTKGQPREPQVYTLPPSREEMTKNQVSLTCLVKGFYPSDIAVEWESNGQPENNYKTTPPMLDSDGSFFLYSKLTVDKSRWQQGNVFSCSVMHEALHNHYTQKSLSLSPGKLEPPPSTVSNMATVAVLVVLGAAIVTGAVVAFVMKMRRRNTGGKGGDYALAPGSQTSDLSLPDCKVMVHDPHSLA
notes: as for B1
Increased factor b Site 2 (point mutation/wild-type): 16.4

B3: human IgG2 anti-mouse CD40 surface displayed antibody, Fc mutant L328E (antibody, name in EU numbering)
light chain (with the P2A rest): DTVLTQSPALAVSPGERVTISCRASDSVSTLMHWYQQKPGQQPKLLIYLASHLESGVPARFSGSGSGTDFTLTIDPVEADDTATYYCQQSWNDPWTFGGGTKLELKRTVAAPSVFIFPPSDEQLKSGTASVVCLLNNFYPREAKVQWKVDNALQSGNSQESVTEQDSKDSTYSLSSTLTLSKADYEKHKVYACEVTHQGLSSPVTKSFNRGECGSGATNFSLLKQAGDVEENPG
heavy chain: EVQLVESDGGLVQPGRSLKLPCAASGFTFSDYYMAWVRQAPTKGLEWVASISYDGSSTYYRDSVKGRFTISRDNAKSTLYLQMDSLRSEDTATYYCGRHSSYFDYWGQGVMVTVSSASTKGPSVFPLAPCSRSTSESTAALGCLVKDYFPEPVTVSWNSGALTSGVHTFPAVLQSSGLYSLSSVVTVPSSNFGTQTYTCNVDHKPSNTKVDKTVERKCCVECPPCPAPPVAGPSVFLFPPKPKDTLMISRTPEVTCVVVDVSHEDPEVQFNWYVDGVEVHNAKTKPREEQFNSTFRVVSVLTVVHQDWLNGKEYKCKVSNKGEPAPIEKTISKTKGQPREPQVYTLPPSREEMTKNQVSLTCLVKGFYPSDIAVEWESNGQPENNYKTTPPMLDSDGSFFLYSKLTVDKSRWQQGNVFSCSVMHEALHNHYTQKSLSLSPGKLEPPPSTVSNMATVAVLVVLGAAIVTGAVVAFVMKMRRRNTGGKGGDYALAPGSQTSDLSLPDCKVMVHDPHSLA
notes: as for B1
Increased factor b Site 1 (point mutation/wild-type): 0.1

B4: human IgG2 anti-mouse CD40 surface displayed antibody, Fc mutant G327A (antibody, name in EU numbering)
light chain (with the P2A rest): DTVLTQSPALAVSPGERVTISCRASDSVSTLMHWYQQKPGQQPKLLIYLASHLESGVPARFSGSGSGTDFTLTIDPVEADDTATYYCQQSWNDPWTFGGGTKLELKRTVAAPSVFIFPPSDEQLKSGTASVVCLLNNFYPREAKVQWKVDNALQSGNSQESVTEQDSKDSTYSLSSTLTLSKADYEKHKVYACEVTHQGLSSPVTKSFNRGECGSGATNFSLLKQAGDVEENPG
heavy chain: EVQLVESDGGLVQPGRSLKLPCAASGFTFSDYYMAWVRQAPTKGLEWVASISYDGSSTYYRDSVKGRFTISRDNAKSTLYLQMDSLRSEDTATYYCGRHSSYFDYWGQGVMVTVSSASTKGPSVFPLAPCSRSTSESTAALGCLVKDYFPEPVTVSWNSGALTSGVHTFPAVLQSSGLYSLSSVVTVPSSNFGTQTYTCNVDHKPSNTKVDKTVERKCCVECPPCPAPPVAGPSVFLFPPKPKDTLMISRTPEVTCVVVDVSHEDPEVQFNWYVDGVEVHNAKTKPREEQFNSTFRVVSVLTVVHQDWLNGKEYKCKVSNKALPAPIEKTISKTKGQPREPQVYTLPPSREEMTKNQVSLTCLVKGFYPSDIAVEWESNGQPENNYKTTPPMLDSDGSFFLYSKLTVDKSRWQQGNVFSCSVMHEALHNHYTQKSLSLSPGKLEPPPSTVSNMATVAVLVVLGAAIVTGAVVAFVMKMRRRNTGGKGGDYALAPGSQTSDLSLPDCKVMVHDPHSLA
notes: as for B1
Increased factor b Site 1 (point mutation/wild-type): 3.4

B5: human IgG2 anti-mouse CD40 surface displayed antibody, Fc mutant I332C (antibody, name in EU numbering)
light chain (with the P2A rest): DTVLTQSPALAVSPGERVTISCRASDSVSTLMHWYQQKPGQQPKLLIYLASHLESGVPARFSGSGSGTDFTLTIDPVEADDTATYYCQQSWNDPWTFGGGTKLELKRTVAAPSVFIFPPSDEQLKSGTASVVCLLNNFYPREAKVQWKVDNALQSGNSQESVTEQDSKDSTYSLSSTLTLSKADYEKHKVYACEVTHQGLSSPVTKSFNRGECGSGATNFSLLKQAGDVEENPG
heavy chain: EVQLVESDGGLVQPGRSLKLPCAASGFTFSDYYMAWVRQAPTKGLEWVASISYDGSSTYYRDSVKGRFTISRDNAKSTLYLQMDSLRSEDTATYYCGRHSSYFDYWGQGVMVTVSSASTKGPSVFPLAPCSRSTSESTAALGCLVKDYFPEPVTVSWNSGALTSGVHTFPAVLQSSGLYSLSSVVTVPSSNFGTQTYTCNVDHKPSNTKVDKTVERKCCVECPPCPAPPVAGPSVFLFPPKPKDTLMISRTPEVTCVVVDVSHEDPEVQFNWYVDGVEVHNAKTKPREEQFNSTFRVVSVLTVVHQDWLNGKEYKCKVSNKGLPAPCEKTISKTKGQPREPQVYTLPPSREEMTKNQVSLTCLVKGFYPSDIAVEWESNGQPENNYKTTPPMLDSDGSFFLYSKLTVDKSRWQQGNVFSCSVMHEALHNHYTQKSLSLSPGKLEPPPSTVSNMATVAVLVVLGAAIVTGAVVAFVMKMRRRNTGGKGGDYALAPGSQTSDLSLPDCKVMVHDPHSLA
notes: as for B1
Increased factor b Site 2 (point mutation/wild-type): 2.7
